Laboratory results taken from patent US20120045393A1 (priority 2009, published 2012).
Read-outs that look alike come from different tables or passages of the source. Values belong to the molecule of their own block, whether it stands above or below them. Non-standard residues stand in square brackets, D forms with d. Primed or numbered codes have the meaning given here. DO3A10CM(3) = metal chelator group attached at the N-terminus (X in table rows); DO3A10CM″ = chelating group at the N-terminus (X in the sequence tables); Bpa = N[C@@H](Cc1ccc(C(=O)c2ccccc2)cc1)C(=O)O; d2Nal = N[C@H](Cc1ccc2ccccc2c1)C(=O)O; DO3A10CM = not defined here; Bpa4 = non-natural residue; Amfe4 = not defined here; Tha = not defined here; azaGly = NNC(=O)O; Sar = CNCC(=O)O

What was measured:
[1] = tested on: EFO-27 human ovarian cancer cells (LHRH binding sites); test: Saturation binding of radiolabeled LHRH-II analogs to EFO-27 cells
Method: Saturation binding of ^125I-LHRH II and the ^177Lu-labeled LHRH II analog ^177Lu-BRU-2666 to EFO-27 cells was carried out to determine the binding affinity, binding capacity (Bmax) and receptor numbers. The data were analyzed for a single binding site using Prizm software.

EFO-27 cells = test: Internalization/efflux studies in EFO-27 cells; type: cell-based, human
Method: Internalization/Efflux Studies: The internalization and efflux studies were carried out following the general procedure. Basically, ^177Lu-LHRH II or ^125I-LHRH II ([^125I-Tyr^8]BRU-2477) (75 uL, 3.0 μCi/mL) was added to the EFO-27 or PC-3 cells. The cells were incubated for 40 min at 37° C. The unbound radioactivity was washed off (4×). Following addition of fresh medium, the cells were further incubated for up to 2 h. At various time points (15, 30, 60 & 120 min) the distribution of radioactivity (membrane-bound, internalized, and efflux) was determined
The internalization and efflux of several Lu-177 labeled LHRH II analogs in EFO-27 cells have been investigated. Basically, following pre-incubation of cells with ^177Lu-LHRH II samples, the binding buffer containing the ^177Lu was replaced with fresh media without complex. The extent of initial internalization (T=0), the amount of radioactive material that remained internalized and the efflux at 0-120 min were determined. The results are shown in FIGS. 21a-f and 22a-c and in Table 25.

[2] = target: T1, LHRH binding sites on EFO-27 human ovarian cancer cells (human); test: competition with [125I-Tyr8]BRU-2477 on EFO-27 cells
T1 chain: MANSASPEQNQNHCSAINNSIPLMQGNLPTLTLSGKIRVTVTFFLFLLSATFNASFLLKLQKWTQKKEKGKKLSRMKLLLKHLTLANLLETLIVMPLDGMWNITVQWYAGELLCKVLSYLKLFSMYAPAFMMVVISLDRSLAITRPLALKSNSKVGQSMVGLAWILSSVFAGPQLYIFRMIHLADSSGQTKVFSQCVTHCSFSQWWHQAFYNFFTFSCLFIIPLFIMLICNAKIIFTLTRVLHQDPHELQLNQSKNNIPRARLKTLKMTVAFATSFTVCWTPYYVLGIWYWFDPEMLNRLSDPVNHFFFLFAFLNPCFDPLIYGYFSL

[3] = target: T1, LHRH binding sites (presumed LHRH …); test: as above
[4] = target: T1, LHRH binding sites (presumed LHRH …); test: as above
[5] = target: LHRH receptor (LHRH binding sites) on EFO-27 human ovarian cancer cells (human); test: internalization/efflux study, cell-associated radioactivity, EFO-27 cells
[6] = target: LHRH receptor (LHRH binding sites) on EFO-27 human ovarian cancer cells (human); test: direct binding of 177Lu-labeled peptide to EFO-27 cells, single concentration
[7] = target: LHRH receptor (LHRH binding sites) on EFO-27 human ovarian cancer cells (human); test: internalization/efflux study, cell-associated radioactivity, EFO-27 cells, 200 fmoles added/well
[8] = target: T1, LHRH binding sites (presumed LHRH …); test: competition with [125I-Tyr8]BRU-2477 on EFO-27 cells
[9] = target: T1, LHRH binding sites (presumed LHRH …); test: as above
[10] = target: T1, LHRH binding sites (presumed LHRH …); test: as above
[11] = target: T1, LHRH binding sites (presumed LHRH …); test: as above
[12] = target: LHRH receptor (LHRH binding sites) on EFO-27 human ovarian cancer cells (human); test: competition with [125I-Tyr8]BRU-2477, EFO-27 cells
[13] = target: LHRH binding sites on EFO-27 human ovarian cancer cells (human); test: competition with [125I-Tyr8]BRU-2477 on EFO-27 cells; remark: listed apart in the source
[14] = target: LHRH binding sites on EFO-27 human ovarian cancer cells (human); test: as above; remark: listed apart in the source
[15] = target: LHRH receptor (LHRH binding sites) on EFO-27 human ovarian cancer cells (human); test: competition with [125I-Tyr8]BRU-2477 for binding to EFO-27 cells
[16] = target: LHRH receptor (LHRH binding sites) on EFO-27 human ovarian cancer cells (human); test: as above; remark: listed apart in the source
[17] = target: LHRH receptor (LHRH binding sites) on EFO-27 human ovarian cancer cells (human); test: as above; remark: listed apart in the source
[18] = saturation binding, single binding site

Molecule: N=C(N)NCCC[C@@H](NC(=O)[C@H](Cc1c[nH]cn1)NC(=O)[C@H](CO)NC(=O)[C@H](Cc1c[nH]c2ccccc12)NC(=O)[C@H](Cc1c[nH]cn1)NC(=O)[C@@H]1CCC(=O)N1)C(=O)N[C@@H](Cc1c[nH]c2ccccc12)C(=O)N[C@@H](Cc1ccc(O)c(I)c1)C(=O)N1CCC[C@H]1C(=O)NNC(N)=O [125I-LHRH II, Darg^6,^125I-Tyr^8,azaGly^10-LHRH-II, reference compound]
receptor numbers [1]: 85×10^6 /cell
Kd [1, 18]: 1.29 µM
Max. binding (Bmax) [1, 18]: 141 pmoles/10^6 cells
Receptors/cell [1, 18]: 85 ×10^6
Kd ([1]; single binding site): 1.29 µM
binding capacity (Bmax) ([1]; single binding site): 141 pmoles/million cells
Cell associated activity at 0 h % Efflux (EFO-27 cells; 0 h): 19%
Cell associated activity at 0 h % Intern (EFO-27 cells; 0 h, internalized): 36.7%
Cell associated activity at 0 h % Memb (EFO-27 cells; 0 h, membrane bound): 44.6%
Cell associated activity at 2 h % Efflux (EFO-27 cells; 2 h): 87.1%
Cell associated activity at 2 h % Intern (EFO-27 cells; 2 h, internalized): 4.9%
Cell associated activity at 2 h % Memb (EFO-27 cells; 2 h, membrane bound): 3.5%
initial internalization (EFO-27 cells; % of total bound (cell-associated) radioactivity, T=0): 35.6%
Bound % (EFO-27 cells; of added): 1.20%
Bound (EFO-27 cells; per well): 1.87 fmol

Molecule: DO3A10CM-[d2Nal]RWMH[dR]W[Bpa]P[azaGly]-NH2 (reading uncertain, AA4 Met) [BRU-2964]
EC50 [4]: 0.22 µM

Molecule: DO3A10CM-[Sar]HWSH[dR]WP[azaGly]-NH2 (not fully specified; reading uncertain) [BRU-2767]
EC50 [2]: 10 µM

B2: ^177Lu-BRU-2757 (peptide)
peptide: XHWSHXWXPX
modifications: 177Lu held by the N-terminal DO3A10CM: 177Lu-DO3A10CM-Damfe4-His-Trp-Ser-His-Darg-Trp-Bpa4-Pro-azaGly-NH2
Bound % [5]: 9.5%
% Bound [6]: 11.1%
Bound fmoles [7]: 19 fmol

Molecule: XRFSHXWXPX (DO3A10CM on N-terminus; AA1 Dnal2; AA6 Darg; AA8 Bpa4; AA10 azaGly-NH2, AA3 Phe) [BRU-3106]
EC50 [9]: 0.43 µM

Molecule: {DO3A10CM(3)}-[Sar]HWSY[dR]L[Bpa]P[azaGly]-NH2 (AA5 Tyr, AA7 Leu) [BRU-2670]
EC50 [3]: 8.84 µM

Molecule: XRRSHXWXPX (DO3A10CM on N-terminus; AA1 Dnal2; AA6 Darg; AA8 Bpa4; AA10 azaGly-NH2, AA3 Arg) [BRU-3111]
EC50 [9]: 0.25 µM

Molecule: {DO3A10CM″}-[Sar]HWSH[dR]WHP[azaGly]-NH2 (AA8 His) [BRU-2763]
EC50 [2]: 13.6 µM

Molecule: DO3A10CM-[d2Nal]RWDH[dR]W[Bpa]P[azaGly]-NH2 (reading uncertain, AA4 Asp) [BRU-2954]
EC50 [4]: 4.2 µM

Molecule: DO3A10CM-[d2Nal]RWWH[dR]W[Bpa]P[azaGly]-NH2 (reading uncertain, AA4 Trp) [BRU-3114]
EC50 [4]: 11.5 µM

Molecule: DO3A10CM-[d2Nal]RWLH[dR]W[Bpa]P[azaGly]-NH2 (reading uncertain, AA4 Leu) [BRU-3113]
EC50 [4]: 1.13 µM

Molecule: DO3A10CM-[d2Nal]RWSH[dR]W[Bpa4]-OH (reading uncertain) [BRU-3064]
EC50 [11]: 0.67 µM

Molecule: DO3A10CM-[Sar]HWSH[dR]WFP[azaGly]-NH2 (reading uncertain, AA8 Phe) [BRU-2730]
EC50 [2]: 12.9 µM

Molecule: XRWSHXWXPX (as printed: DO3A10CM-Dnal2-Arg-Trp-Ser-His-Darg-Trp-Bpa4-Pro-azaGly-NH2) [BRU-2813]
EC50 [12]: 0.33 µM
EC50 [13]: 0.33 µM
percent more potency than BRU-2666 [14]: 30%
EC50 [16]: 0.33 µM
EC50 [17]: 0.42 µM
EC50 [15]: 0.3 µM

Continued, values first:

EC50 [2]: 2.83 µM
Molecule: DO3A10CM-[Sar]HWSH[dR]WRP[azaGly]-NH2 (reading uncertain, AA8 Arg) [BRU-2723]

EC50 [3]: 5.53 µM
Molecule: {DO3A10CM″}-[Sar]WS[Tha][dR]W[Bpa]P[azaGly]-NH2 (reading uncertain) [BRU-2740]

Bound % [5]: 5.1%
% Bound [6]: 5.17%
Bound fmoles [7]: 10.2 fmol
B1: ^177Lu-BRU-2756 (peptide)
peptide: DO3A10CM-[Sar][Amfe4]WSH[dR]W[Bpa]P[azaGly]-NH2
modifications: reading uncertain; also: 177Lu complexed by DO3A10CM, printed as 177Lu-DO3A10CM-Sar-Amfe4-Trp-Ser-His-Darg-Trp-Bpa4-Pro-azaGly-NH2

EC50 [8]: 7.29 µM
Molecule: {DO3A10CM(3)}-GPHWSH[dR]W[Bpa]P[azaGly]-NH2 (AA1 Pro) [BRU-2667]

EC50 [4]: 0.28 µM
Molecule: XRWNHXWXPX (DO3A10CM on N-terminus; AA1 Dnal2; AA6 Darg; AA8 Bpa4; AA10 azaGly-NH2, AA4 Asn) [BRU-2956]

EC50 [8]: 0.31 µM
Molecule: RRWSHXWXPX (DO3A10CM on N-terminus; AA6 Darg; AA8 Bpa4; AA10 azaGly-NH2, AA1 Arg, AA2 Arg) [BRU-3050]

EC50 [9]: 0.56 µM
Molecule: DO3A10CM-[d2Nal]RLSH[dR]W[Bpa]P[azaGly]-NH2 (reading uncertain, AA3 Leu) [BRU-3108]

EC50 [8]: 10 µM
Molecule: DO3A10CM-[Sar]KWSH[dR]W[Bpa]P[azaGly]-NH2 (reading uncertain, AA2 Lys) [BRU-2871]

EC50 [3]: 1.09 µM
Molecule: DO3A10CM-[d2Nal]RWSA[dR]W[Bpa]P[azaGly]-NH2 (reading uncertain, AA5 Ala) [BRU-3028]

EC50 [8]: 1.37 µM
Molecule: GGHWSHXWXPX (DO3A10CM-Gly (linker) on N-terminus; AA6 Darg; AA8 Bpa4; AA10 azaGly-NH2, AA1 Gly) [BRU-2795]

fold lower binding potency than BRU-2443 [10]: ~8 fold
EC50 [3]: 7.34 µM
Molecule: DO3A10CM-[Sar]HWS[Tha][dR]W[Bpa]P[azaGly]-NH2 (reading uncertain) [BRU-2769]

EC50 [12]: 0.47 µM
EC50 [13]: 0.47 µM
EC50 [14]: 2.6 µM
times more potent than the Sar1 analog (BRU-2443) [14]: 2 times
EC50 [15]: 0.39 µM
Molecule: XHWSHXWXPX (as printed: DO3A10CM-Dnal2-His-Trp-Ser-His-Darg-Trp-Bpa4-Pro-azaGly-NH2) [BRU-2666]

EC50 [3]: 1.21 µM
Molecule: DO3A10CM-[d2Nal]RWSL[dR]W[Bpa]P[azaGly]-NH2 (reading uncertain, AA5 Leu) [BRU-3029]

EC50 [8]: 2.24 µM
Molecule: DO3A10CM-[Sar]YWSH[dR]W[Bpa]P[azaGly]-NH2 (reading uncertain, AA2 Tyr) [BRU-2814]

EC50 [3]: 3.47 µM
Molecule: {DO3A10CM(3)}-[Sar]HWSY[dR]W[Bpa]P[azaGly]-NH2 (AA5 Tyr) [BRU-2668]
